In the supplement of paper PMC12764529:
± gives the half width of the 95% confidence interval.

Assays:
[1] = folding stability dG unfold from trypsin proteolysis; higher = more stable
Procedure, shortened: (§1)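 Bayesian fitting of sequencing counts gave K50 for each design. Unfolding free energy followed by setting this against a sequence-predicted unfolded-state K50 and a shared folded-state K50, either per protease or with trypsin and chymotrypsin combined. The designs, under 80 residues and lacking cysteine, were digested in a PA-tagged cDNA display format at 11 threefold-diluted protease concentrations and without protease, and only those with AlphaFold2 dimer inter-PAE above 15 were kept.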

[2] = folding stability dG unfold from chymotrypsin proteolysis; higher = more stable
Procedure, shortened: as §1

[3] = folding stability dG unfold (combined trypsin and chymotrypsin); higher = more stable
Procedure, shortened: as §1

Sequence: SAGGSAGGSAGKQPIEMWFMFPNGVAIVLRIKVDPPSPKAKIDAIEVVPVRDPDNGKWRFSAGGSAGGSAGG [r11_919_TrROS]
- folding stability dG unfold [1]: 0.566 ± 0.11 kcal/mol
- folding stability dG unfold [2]: 1.85 ± 0.1 kcal/mol
- folding stability dG unfold [3]: 1.38 ± 0.14 kcal/mol

Sequence: SAGGSAGGSAGKTIYAPYSKIPEVIEELKKKGYEIDSIEKVPNGSYKISFKNKPIEINLGSAGGSAGGSAGG [r17_379_TrMRF]
- folding stability dG unfold [1]: 3.24 ± 0.078 kcal/mol
- folding stability dG unfold [2]: 3.83 ± 0.048 kcal/mol
- folding stability dG unfold [3]: 3.65 ± 0.088 kcal/mol

Sequence: SAGGSAGGSAGKTYTFRVRIVDEETGEEKEIEVTAKSEEEAKKAAEELKKKYPNLKVELESAGGSAGGSAGG [r11_233_TrROS_Hall]
- folding stability dG unfold [1]: 2.98 ± 0.13 kcal/mol
- folding stability dG unfold [2]: 3.24 ± 0.036 kcal/mol
- folding stability dG unfold [3]: 3.22 ± 0.14 kcal/mol

Sequence: SAGGSAGGSAGKVTLVFKTKEDALNAIKELAEKEGLKVKIVKIEELPNGLIKITVEIEKPSAGGSAGGSAGG [r11_304_TrROS_Hall]
- folding stability dG unfold [1]: 3.99 ± 0.25 kcal/mol
- folding stability dG unfold [2]: 4.2 ± 0.095 kcal/mol
- folding stability dG unfold [3]: 4.22 ± 0.17 kcal/mol

Sequence: SAGGSAGGSAGKWKTITILIPNMPVEEIADRIMDKFGPGIRITEITPNKPGWFWITIIVRSAGGSAGGSAGG [r11_580_TrROS]
- folding stability dG unfold [1]: 3.29 ± 0.075 kcal/mol
- folding stability dG unfold [2]: 3.823 ± 0.037 kcal/mol
- folding stability dG unfold [3]: 3.62 ± 0.069 kcal/mol

Sequence: SAGGSAGGSAGLAEKLRDEIRESIKGPDGLEVPDDVELLSIDVPEDSAFVEVRFPADLPVSAGGSAGGSAGG [r17_519_TrMRF]
- folding stability dG unfold [1]: 0.436 ± 0.025 kcal/mol
- folding stability dG unfold [2]: 0.233 ± 0.02 kcal/mol
- folding stability dG unfold [3]: 0.363 ± 0.089 kcal/mol

Sequence: SAGGSAGGSAGLDNIKPEELKKLFPGYKVYLLKVEEVGGKLKVDVKILKYNPSTNTWTPESAGGSAGGSAGG [r11_20_TrMRF]
- folding stability dG unfold [1]: 1.13 ± 0.044 kcal/mol
- folding stability dG unfold [2]: 1.59 ± 0.14 kcal/mol
- folding stability dG unfold [3]: 1.48 ± 0.11 kcal/mol

Sequence: SAGGSAGGSAGLEIKIPNGNKTITVEKTKDYYKATIYFPETGEKVEFTFPPNVSLSLLDISAGGSAGGSAGG [r11_772_TrMRF]
- folding stability dG unfold [1]: 1.98 ± 0.11 kcal/mol
- folding stability dG unfold [2]: 1.12 ± 0.073 kcal/mol
- folding stability dG unfold [3]: 1.62 ± 0.18 kcal/mol

Sequence: SAGGSAGGSAGLPEEIADFVKEILEKAFPNVKVLEVEVEELPEGFYVVRARFEDGSEVEFPISAGGSAGGSA [r18_423_TrMRF]
- folding stability dG unfold [1]: 4.29 ± 0.091 kcal/mol
- folding stability dG unfold [2]: 3.47 ± 0.059 kcal/mol
- folding stability dG unfold [3]: 3.88 ± 0.069 kcal/mol

Sequence: SAGGSAGGSAGLPENVKLVKVTVTITYPNGEKETIPVVAPVPVLEKLLSLPGLPVSVTDESAGGSAGGSAGG [r17_313_TrMRF]
- folding stability dG unfold [1]: 0.465 ± 0.028 kcal/mol
- folding stability dG unfold [2]: 0.0595 ± 0.071 kcal/mol
- folding stability dG unfold [3]: 0.333 ± 0.12 kcal/mol

Sequence: SAGGSAGGSAGLPGAEKARKPKPKVKVKVTLTVLPDGTLVLRVTFEDGTTKTITLKLHPDLLSAGGSAGGSA [r18_192_TrMRF]
- folding stability dG unfold [1]: 2.37 ± 0.13 kcal/mol
- folding stability dG unfold [2]: 3.55 ± 0.11 kcal/mol
- folding stability dG unfold [3]: 3.08 ± 0.24 kcal/mol

Sequence: SAGGSAGGSAGLPPGDYRLFPFTVTITIPPIKVKDPNGDEHEIDNLEISITIYFFVPAGDSAGGSAGGSAGG [r11_907_TrROS]
- folding stability dG unfold [1]: 3.43 ± 0.15 kcal/mol
- folding stability dG unfold [2]: 4.58 ± 0.12 kcal/mol
- folding stability dG unfold [3]: 4.03 ± 0.34 kcal/mol

Sequence: SAGGSAGGSAGLTKPVEVEVEEDGTVTIKTLSIVPVDDGYELHEETTEIPLSPEEIAALQSAGGSAGGSAGG [r17_415_JUSTAS]
- folding stability dG unfold [1]: 0.504 ± 0.035 kcal/mol
- folding stability dG unfold [2]: -0.158 ± 0.33 kcal/mol
- folding stability dG unfold [3]: 0.327 ± 0.17 kcal/mol

Sequence: SAGGSAGGSAGMEPPEIKVEVSSDPTPSGMKVETIKDLGKGKTIIVLKPEDGSVSTSTLESAGGSAGGSAGG [r11_55_JUSTAS]
- folding stability dG unfold [1]: -0.0544 ± 0.19 kcal/mol
- folding stability dG unfold [2]: 0.286 ± 0.13 kcal/mol
- folding stability dG unfold [3]: 0.0414 ± 0.44 kcal/mol

Sequence: SAGGSAGGSAGMETIRLTFTVPGPDDRYYRVSVEARINPPTGEIEILRVEITPLDNPDAISAGGSAGGSAGG [r11_777_TrMRF]
- folding stability dG unfold [1]: 3.09 ± 0.12 kcal/mol
- folding stability dG unfold [2]: 3.93 ± 0.035 kcal/mol
- folding stability dG unfold [3]: 3.69 ± 0.052 kcal/mol

Sequence: SAGGSAGGSAGMEVILLEVDSEEEAEKLVKELSEKYGYPVKVEKDPENPKLVTLTIEKPKSAGGSAGGSAGG [r11_797_JUSTAS]
- folding stability dG unfold [1]: 1.41 ± 0.066 kcal/mol
- folding stability dG unfold [2]: 1.16 ± 0.039 kcal/mol
- folding stability dG unfold [3]: 1.36 ± 0.067 kcal/mol

Sequence: SAGGSAGGSAGMEYSIDKASGKILIKIPDEDKTWILYDPKTGEKYIFKQIGGKWYKVEKVSAGGSAGGSAGG [r11_1036_TrMRF]
- folding stability dG unfold [1]: 1.57 ± 0.058 kcal/mol
- folding stability dG unfold [2]: 1.87 ± 0.14 kcal/mol
- folding stability dG unfold [3]: 1.91 ± 0.26 kcal/mol

Sequence: SAGGSAGGSAGMGVPPDGATLRFTYPESPSSTRTFTSPEEAAAWIAANLPPEHSVSFSPASAGGSAGGSAGG [r11_983_JUSTAS]
- folding stability dG unfold [1]: 0.25 ± 0.1 kcal/mol
- folding stability dG unfold [2]: 0.863 ± 0.12 kcal/mol
- folding stability dG unfold [3]: 0.684 ± 0.084 kcal/mol

Sequence: SAGGSAGGSAGMITIERIPGSGKLVITITDPGSGKVLTIPFDNADPKEALAKAKELLKKLSAGGSAGGSAGG [r17_386_JUSTAS]
- folding stability dG unfold [1]: 3.25 ± 0.071 kcal/mol
- folding stability dG unfold [2]: 3.19 ± 0.048 kcal/mol
- folding stability dG unfold [3]: 3.25 ± 0.075 kcal/mol

Sequence: SAGGSAGGSAGMKEGEKPKVKIEIDVLIEVDGKLYRVRAEAEINEDGEITIKVEIEELPDSAGGSAGGSAGG [r11_551_TrROS_Hall]
- folding stability dG unfold [1]: 2.4 ± 0.11 kcal/mol
- folding stability dG unfold [2]: 3.65 ± 0.11 kcal/mol
- folding stability dG unfold [3]: 3.3 ± 0.12 kcal/mol

Sequence: SAGGSAGGSAGMKELEITIIDKKTGKPLKVKVTLVEVDGKLYLVIEVYKNGKPLETYVLPSAGGSAGGSAGG [r11_631_TrROS_Hall]
- folding stability dG unfold [1]: 2.29 ± 0.12 kcal/mol
- folding stability dG unfold [2]: 3.2 ± 0.072 kcal/mol
- folding stability dG unfold [3]: 3 ± 0.18 kcal/mol

Sequence: SAGGSAGGSAGMKIEKNKDGKLRIIIYNKNGKKVKEIEMSVEEAKKLAEKNNFEIVKIEPSAGGSAGGSAGG [r11_521_TrROS_Hall]
- folding stability dG unfold [1]: 1.02 ± 0.093 kcal/mol
- folding stability dG unfold [2]: 0.966 ± 0.41 kcal/mol
- folding stability dG unfold [3]: 1.09 ± 0.21 kcal/mol

Sequence: SAGGSAGGSAGMKIRIELPGMSPEQIEELAKLIPNVRVSITYDKETNRVYVEIEVSEEDLSAGGSAGGSAGG [r11_862_TrROS_Hall]
- folding stability dG unfold [1]: 2.38 ± 0.058 kcal/mol
- folding stability dG unfold [2]: 3.21 ± 0.052 kcal/mol
- folding stability dG unfold [3]: 2.88 ± 0.051 kcal/mol

Sequence: SAGGSAGGSAGMKKNEKLITELTFEGPDVYVKITIEKTFDPEGNKIYFKAKIEVFAPGELSAGGSAGGSAGG [r11_237_TrMRF]
- folding stability dG unfold [1]: 2.83 ± 0.097 kcal/mol
- folding stability dG unfold [2]: 4.06 ± 0.075 kcal/mol
- folding stability dG unfold [3]: 3.67 ± 0.1 kcal/mol

Sequence: SAGGSAGGSAGMKKTVTTSTAPDGTLTTTTTVPTPDSTTTVVTTTTDPTTGTTTTTTTANSAGGSAGGSAGG [r11_107_JUSTAS]
- folding stability dG unfold [1]: -2 ± 0.54 kcal/mol
- folding stability dG unfold [2]: -0.317 ± 0.095 kcal/mol
- folding stability dG unfold [3]: -0.711 ± 0.34 kcal/mol

Sequence: SAGGSAGGSAGMKLTITVTFPDGTTPTFEVPPNSGDPAEVAAAIRAAHPDVVTITITPELSAGGSAGGSAGG [r11_311_JUSTAS]
- folding stability dG unfold [1]: 0.683 ± 0.039 kcal/mol
- folding stability dG unfold [2]: 0.27 ± 0.063 kcal/mol
- folding stability dG unfold [3]: 0.448 ± 0.12 kcal/mol

Sequence: SAGGSAGGSAGMKTLKIASISTSTSPTNTTLTTVTITSEGVTTTVTFPPGTTLEEVLEQLSAGGSAGGSAGG [r11_1056_JUSTAS]
- folding stability dG unfold [1]: 0.53 ± 0.049 kcal/mol
- folding stability dG unfold [2]: 0.678 ± 0.11 kcal/mol
- folding stability dG unfold [3]: 0.685 ± 0.1 kcal/mol

Sequence: SAGGSAGGSAGMKTSVTTPVTLPDGTPAVVTKYDGEVEIIDTGDGTSKVVPLSEVPPKLLSAGGSAGGSAGG [r11_155_JUSTAS]
- folding stability dG unfold [1]: 0.678 ± 0.035 kcal/mol
- folding stability dG unfold [2]: 0.422 ± 0.076 kcal/mol
- folding stability dG unfold [3]: 0.604 ± 0.07 kcal/mol

Sequence: SAGGSAGGSAGMKTTTLEVSTDPSGYTTTKTKIEIINENTPSISTSTVVTAVTPPAPPIASAGGSAGGSAGG [r11_830_JUSTAS]
- folding stability dG unfold [1]: 0.133 ± 0.017 kcal/mol
- folding stability dG unfold [2]: 0.122 ± 0.11 kcal/mol
- folding stability dG unfold [3]: 0.195 ± 0.057 kcal/mol

Sequence: SAGGSAGGSAGMKTTYDPDTNKLSITLPNGTVATYYLGTGVIEIPDEVSSKEDIKVEKAASAGGSAGGSAGG [r17_174_JUSTAS]
- folding stability dG unfold [1]: 0.321 ± 0.11 kcal/mol
- folding stability dG unfold [2]: 0.956 ± 0.17 kcal/mol
- folding stability dG unfold [3]: 0.79 ± 0.15 kcal/mol

Sequence: SAGGSAGGSAGMKTVTVTVPPSAGVDAVREALAAQGMTVTSVSREGDTLTVTTEAPPELLSAGGSAGGSAGG [r11_672_JUSTAS]
- folding stability dG unfold [1]: -0.866 ± 0.14 kcal/mol
- folding stability dG unfold [2]: 0.294 ± 0.08 kcal/mol
- folding stability dG unfold [3]: 0.024 ± 0.13 kcal/mol

Sequence: SAGGSAGGSAGMKVTIEENEETGKFTIKVKTEDGEEKTIEIPKENLEEILAKLPPNVEIISAGGSAGGSAGG [r11_569_TrROS_Hall]
- folding stability dG unfold [1]: 2.52 ± 0.11 kcal/mol
- folding stability dG unfold [2]: 1.92 ± 0.036 kcal/mol
- folding stability dG unfold [3]: 2.14 ± 0.17 kcal/mol

Sequence: SAGGSAGGSAGMKVTVTITYPGGKVTTLDGDPEEVKAALPSSLTDVKITVTDPATGKVAASAGGSAGGSAGG [r11_353_JUSTAS]
- folding stability dG unfold [1]: -0.213 ± 0.06 kcal/mol
- folding stability dG unfold [2]: 0.838 ± 0.032 kcal/mol
- folding stability dG unfold [3]: 0.635 ± 0.12 kcal/mol

Sequence: SAGGSAGGSAGMKVVVELEVTFDSEEEAEAVAKAIAEELGSEDVVVKVIRKPVELGPGLKSAGGSAGGSAGG [r17_285_JUSTAS]
- folding stability dG unfold [1]: 0.0891 ± 0.061 kcal/mol
- folding stability dG unfold [2]: 0.891 ± 0.031 kcal/mol
- folding stability dG unfold [3]: 0.656 ± 0.051 kcal/mol

Sequence: SAGGSAGGSAGMKVVVTLPDRTVTIPVNGTLDEAKEAVIKRAEELFGKPIPIEEITMSGESAGGSAGGSAGG [r11_1028_JUSTAS]
- folding stability dG unfold [1]: 0.677 ± 0.03 kcal/mol
- folding stability dG unfold [2]: -0.0243 ± 0.083 kcal/mol
- folding stability dG unfold [3]: 0.408 ± 0.11 kcal/mol
